Assay results from IntAct's records for PubMed 16698552.

B1: Eukaryotic translation initiation factor 4 gamma 1 (Homo sapiens), Q04637-8 (parent)
chain: MNKAPQSTGPPPAPSPGLPQPAFPPGQTAPVVFSTPQATQMNTPSQPRQHFYPSRAQPPSSAASRVQSAAPARPGPAAHVYPAGSQVMMIPSQISYPASQGAYYIPGQGRSTYVVPTQQYPVQPGAPGFYPGASPTEFGTYAGAYYPAQGVQQFPTGVAPTPVLMNQPPQIAPKRERKTIRIRDPNQGGKDITEEIMSGARTASTPTPPQTGGGLEPQANGETPQVAVIVRPDDRSQGAIIADRPGLPGPEHSPSESQPSSPSPTPSPSPVLEPGSEPNLAVLSIPGDTMTTIQMSVEESTPISRETGEPYRLSPEPTPLAEPILEVEVTLSKPVPESEFSSSPLQAPTPLASHTVEIHEPNGMVPSEDLEPEVESSPELAPPPACPSESPVPIAPTAQPEELLNGAPSPPAVDLSPVSEPEEQAKEVTASMAPPTIPSATPATAPSATSPAQEEEMEEEEEEEEGEAGEAGEAESEKGGEELLPPESTPIPANLSQNLEAAAATQVAVSVPKRRRKIKELNKKEAVGDLLDAFKEANPAVPEVENQPPAGSNPGPESEGSGVPPRPEEADETWDSKEDKIHNAENIQPGEQKYEYKSDQWKPLNLEEKKRYDREFLLGFQFIFASMQKPEGLPHISDVVLDKANKTPLRPLDPTRLQGINCGPDFTPSFANLGRTTLSTRGPPRGGPGGELPRGPQAGLGPRRSQQGPRKEPRKIIATVLMTEDIKLNKAEKAWKPSSKRTAADKDRGEEDADGSKTQDLFRRVRSILNKLTPQMFQQLMKQVTQLAIDTEERLKGVIDLIFEKAISEPNFSVAYANMCRCLMALKVPTTEKPTVTVNFRKLLLNRCQKEFEKDKDDDEVFEKKQKEMDEAATAEERGRLKEELEEARDIARRRSLGNIKFIGELFKLKMLTEAIMHDCVVKLLKNHDEESLECLCRLLTTIGKDLDFEKAKPRMDQYFNQMEKIIKEKKTSSRIRFMLQDVLDLRGSNWVPRRGDQGPKTIDQIHKEAEMEEHREHIKVQQLMAKGSDKRRGGPPGPPISRGLPLVDDGGWNTVPISKGSRPIDTSRLTKITKPGSIDSNNQLFAPGGRLSWGKGSSGGSGAKPSDAASEAARPATSTLNRFSALQQAVPTESTDNRRVVQRSSLSRERGEKAGDRGDRLERSERGGDRGDRLDRARTPATKRSFSKEVEERSRERPSQPEGLRKAASLTEDRDRGRDAVKREAALPPVSPLKAALSEEELEKKSKAIIEEYLHLNDMKEAVQCVQELASPSLLFIFVRHGVESTLERSAIAREHMGQLLHQLLCAGHLSTAQYYQGLYEILELAEDMEIDIPHVWLYLAELVTPILQEGGVPMGELFREITKPLRPLGKAASLLLEILGLLCKSMGPKKVGTLWREAGLSWKEFLPEGQDIGAFVAEQKVEYTLGEESEAPGQRALPSEELNRQLEKLLKEGSSNQRVFDWIEANLSEQQIVSNTLVRALMTAVCYSAIIFETPLRVDVAVLKARAKLLQKYLCDEQKELQALYALQALVVTLEQPPNLLRMFFDALYDEDVVKEDAFYSWESSKDPAEQQGKGVALKSVTAFFKWLREAEEESDHN

Variants of: B1
Conditions: with if4g1_human EIF4G1, Q04637

effect of a mutation on the interaction	Variant
disrupting interaction	I1278A;F1279A;V1280A
